According to article PMC5760045, “The centrosomin CM2 domain is a multi-functional binding domain with distinct cell cycle roles” (PLoS ONE, 2018):
Each block holds one molecule with its values, some of them ahead of it.

Key:
[1] = target: CM2 Δ1130–1148 (Drosophila melanogaster) (UniProt P54623); test: SEC-MALS; KW-802.5 size exclusion column with inline MALS and refractive index detectors; 50mM HEPES pH 7.0, 200mM NaCl, 1mM DTT; dimer constructs also at submicromolar concentrations (1μM and 9μM for aa1074-1148)
[2] = target: centrosomin CM2 aa1090-1148 (monomeric CM2) (Drosophila melanogaster) (UniProt P54623); test: NMR titration; 2D [15N,1H]-HSQC of 100μM 15N labeled monomeric CM2 with 18μM CaM; 2mM EGTA added in place of 2mM CaCl2; 300K; 20mM PIPES pH 6.8, 140mM NaCl; apparent affinity
[3] = target: T1, GB1-CNNLZ (CNN aa490-567 fused to the GB1 solubility tag) (Drosophila melanogaster, UniProt P54623-2 490-567); test: NMR titration; 2D [15N,1H]-HSQC of 100μM 15N labeled CM2 with unlabeled partner added; 300K; 20mM PIPES pH 6.8, 140mM NaCl, 0.01% NaN3, 5% D2O, 2mM CaCl2; 800 MHz; settings: both partners purified
T1 construct: centrosomin (CNN), Drosophila melanogaster, residues 490-567 with the leucine zipper, the same fragment as in the crystal structure 5MWE; The introduction gives aa490-544 for CNNLZ of Feng et al; the results give aa490-567 for the fragment used here; also called GB1-CnnMD; source: E. coli, purified (NiNTA, size exclusion)
T1 sequence (looked up): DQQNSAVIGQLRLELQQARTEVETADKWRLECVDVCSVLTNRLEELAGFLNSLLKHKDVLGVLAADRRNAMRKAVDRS

[4] = target: the molecule itself; test: SEC-MALS; KW-802.5 size exclusion column with inline MALS and refractive index detectors; 50mM HEPES pH 7.0, 200mM NaCl, 1mM DTT; dimer constructs also at submicromolar concentrations (1μM and 9μM for aa1074-1148)

stoichiometry N [1]: 2
Molecule: CM2 Δ1130–1148 (from UniProt P54623-2 1-1129) (domain or fragment)

reduction of the apparent affinity without calcium (2mM EGTA) against 2mM CaCl2 [2]: 50 to 70%
Molecule: calmodulin (from UniProt P62152 1-149) (natural protein)

binding result [3]: binds
B1: centrosomin CM2 aa1090-1148 (monomeric CM2) (domain or fragment, Drosophila melanogaster, UniProt P54623-2 1090-1148, looked up)
chain: ENAELRRKLIRTKRAFEDTYEKLRMANKAKAQVEKDIKNQILKTHNVLRNVRSNMENEL
notes: centrosomin (CNN), Drosophila melanogaster, residues 1090-1148 (start of the predicted coiled coil to the C-terminus), from cDNA LD19135; 15N-labelled (or 13C/15N) in the NMR experiments; also called CM2 monomer; truncated CM2; source: E. coli, purified (NiNTA, cation exchange; non-labeled protein also size exclusion)

The next lines start with the molecule.

B2: centrosomin CM2 aa1064-1148 (longer dimeric CM2) (domain or fragment, Drosophila melanogaster, UniProt P54623-2 1064-1148, looked up)
chain: ESTSPDSKSNVATGAATVHDCAKVDLENAELRRKLIRTKRAFEDTYEKLRMANKAKAQVEKDIKNQILKTHNVLRNVRSNMENEL
notes: centrosomin (CNN), Drosophila melanogaster, residues 1064-1148, from cDNA LD19135; source: E. coli, purified (NiNTA, cation exchange, size exclusion)
stoichiometry N [4]: 2

B3: centrosomin CM2 aa1074-1148 (minimal dimeric CM2) (domain or fragment, Drosophila melanogaster, UniProt P54623-2 1074-1148, looked up)
chain: VATGAATVHDCAKVDLENAELRRKLIRTKRAFEDTYEKLRMANKAKAQVEKDIKNQILKTHNVLRNVRSNMENEL
notes: centrosomin (CNN), Drosophila melanogaster, residues 1074-1148, from cDNA LD19135; 15N-labelled in the NMR experiments; also called CM2 dimer; minimal dimer construct; source: E. coli, purified (NiNTA, cation exchange; non-labeled protein also size exclusion)
stoichiometry N [4]: 2
